Data as given in US20170209564A1.

Assays:
Conditions in all cases: remark: other sources report otherwise
[1] = molecular target: 171E5; experiment: ELISA, coated CR6261, HEK293F medium
[2] = molecular target: 71H2; experiment: ELISA, coated CR6261, HEK293F medium
[3] = molecular target: 7A7; experiment: ELISA, coated CR6261, HEK293F medium
[4] = molecular target: 91C4; experiment: ELISA, coated CR6261, HEK293F medium
[5] = molecular target: 71C4; experiment: ELISA, coated CR6261, HEK293F medium
[6] = molecular target: 113E7; experiment: ELISA, coated CR6261, HEK293F medium
[7] = molecular target: 220C9; experiment: ELISA, coated CR6261, HEK293F medium
[8] = molecular target: 131B5; experiment: ELISA, coated CR6261, HEK293F medium
[9] = molecular target: 86B4; experiment: ELISA, coated CR6261, HEK293F medium
[10] = molecular target: 115A1; experiment: ELISA, coated CR6261, HEK293F medium
[11] = molecular target: 6E12; experiment: ELISA, coated CR6261, HEK293F medium
[12] = molecular target: 181H9; experiment: ELISA, coated CR6261, HEK293F medium
[13] = molecular target: 35H3; experiment: ELISA signal over HTRF expression signal, P. pastoris
[14] = molecular target: 78G2; experiment: as above
[15] = molecular target: 90A9; experiment: as above
[16] = molecular target: 8D7; experiment: as above
[17] = molecular target: 1F2; experiment: as above
[18] = molecular target: 54H4; experiment: as above
[19] = molecular target: 80F10; experiment: as above
[20] = molecular target: 86G3; experiment: as above
[21] = molecular target: 50G10; experiment: as above
[22] = molecular target: 88C5; experiment: as above
[23] = molecular target: 55G7; experiment: as above
[24] = molecular target: 8A10; experiment: as above
[25] = molecular target: 96G5; experiment: as above
[26] = molecular target: 74D7; experiment: as above
[27] = molecular target: 56F8; experiment: as above
[28] = molecular target: 84E10; experiment: as above
[29] = molecular target: 71C4; experiment: as above
[30] = molecular target: 29C2; experiment: as above
[31] = molecular target: 58A5; experiment: as above
[32] = molecular target: 84D3; experiment: as above
[33] = molecular target: 48B10; experiment: as above
[34] = molecular target: 57B8; experiment: as above
[35] = molecular target: 76A10; experiment: as above
[36] = molecular target: 7D9; experiment: as above
[37] = molecular target: 6E12; experiment: as above
[38] = molecular target: 74H9; experiment: as above
[39] = molecular target: 70F6; experiment: as above
[40] = molecular target: 79D5; experiment: as above

B1: CR6261 (antibody, V domains shown)
VH: EVQLVESGAEVKKPGSSVKVSCKASGGPFRSYAISWVRQAPGQGPEWMGGIIPIFGTTKYAPKFQGRVTITADDFAGTVYMELSSLRSEDTAMYYCAKHMGYQVRETMDVWGKGTTVTVSS
VL: QSVLTQPPSVSAAPGQKVTISCSGSSSNIGNDYVSWYQQLPGTAPKLLIYDNNKRPSGIPDRFSGSKSGTSATLGITGLQTGDEANYYCATWDRRPTAYVVFGGGTKLTVLG
[1]
  CR6261 binding signal: 6.63e+06
[2]
  CR6261 binding signal: 2.11e+07
[3]
  CR6261 binding signal: 6.19e+06
[4]
  CR6261 binding signal: 8.44e+06
[5]
  CR6261 binding signal: 6.41e+06
[6]
  CR6261 binding signal: 1.3e+07
[7]
  CR6261 binding signal: 8.49e+06
[8]
  CR6261 binding signal: 5.73e+06
[9]
  CR6261 binding signal: 2e+07
[10]
  CR6261 binding signal: 9.56e+06
[11]
  CR6261 binding signal: 1.53e+07
[12]
  CR6261 binding signal: 1.19e+07
[13]
  fold increase of ratio over parental SEQ ID NO: 6: 2.94
  ratio (binding signal/HTRF signal): 17.4
[14]
  fold increase of ratio over parental SEQ ID NO: 6: 1.58
  ratio (binding signal/HTRF signal): 9.36
[15]
  fold increase of ratio over parental SEQ ID NO: 6: 7.72
  ratio (binding signal/HTRF signal): 45.8
[16]
  fold increase of ratio over parental SEQ ID NO: 6: 1.69
  ratio (binding signal/HTRF signal): 10
[17]
  fold increase of ratio over parental SEQ ID NO: 6: 2.04
  ratio (binding signal/HTRF signal): 12.1
[18]
  fold increase of ratio over parental SEQ ID NO: 6: 8.39
  ratio (binding signal/HTRF signal): 49.8
[19]
  fold increase of ratio over parental SEQ ID NO: 6: 1.78
  ratio (binding signal/HTRF signal): 10.6
[20]
  fold increase of ratio over parental SEQ ID NO: 6: 3.87
  ratio (binding signal/HTRF signal): 23
[21]
  fold increase of ratio over parental SEQ ID NO: 6: 4.7
  ratio (binding signal/HTRF signal): 27.9
[22]
  fold increase of ratio over parental SEQ ID NO: 6: 5.94
  ratio (binding signal/HTRF signal): 35.3
[23]
  fold increase of ratio over parental SEQ ID NO: 6: 11.8
  ratio (binding signal/HTRF signal): 70.3
[24]
  fold increase of ratio over parental SEQ ID NO: 6: 6.29
  ratio (binding signal/HTRF signal): 37.4
[25]
  fold increase of ratio over parental SEQ ID NO: 6: 2.4
  ratio (binding signal/HTRF signal): 14.3
[26]
  fold increase of ratio over parental SEQ ID NO: 6: 3.27
  ratio (binding signal/HTRF signal): 19.4
[27]
  fold increase of ratio over parental SEQ ID NO: 6: 3.65
  ratio (binding signal/HTRF signal): 21.7
[28]
  fold increase of ratio over parental SEQ ID NO: 6: 5.37
  ratio (binding signal/HTRF signal): 31.9
[29]
  fold increase of ratio over parental SEQ ID NO: 6: 5.13
  ratio (binding signal/HTRF signal): 30.4
[30]
  fold increase of ratio over parental SEQ ID NO: 6: 2.32
  ratio (binding signal/HTRF signal): 13.8
[31]
  fold increase of ratio over parental SEQ ID NO: 6: 3.69
  ratio (binding signal/HTRF signal): 21.9
[32]
  fold increase of ratio over parental SEQ ID NO: 6: 4.87
  ratio (binding signal/HTRF signal): 28.9
[33]
  fold increase of ratio over parental SEQ ID NO: 6: 3.16
  ratio (binding signal/HTRF signal): 18.8
[34]
  fold increase of ratio over parental SEQ ID NO: 6: 1.7
  ratio (binding signal/HTRF signal): 10.1
[35]
  fold increase of ratio over parental SEQ ID NO: 6: 3.37
  ratio (binding signal/HTRF signal): 20
[36]
  fold increase of ratio over parental SEQ ID NO: 6: 2.07
  ratio (binding signal/HTRF signal): 12.3
[37]
  fold increase of ratio over parental SEQ ID NO: 6: 2.85
  ratio (binding signal/HTRF signal): 16.9
[38]
  fold increase of ratio over parental SEQ ID NO: 6: 6.09
  ratio (binding signal/HTRF signal): 36.1
[39]
  fold increase of ratio over parental SEQ ID NO: 6: 1.63
  ratio (binding signal/HTRF signal): 9.66
[40]
  fold increase of ratio over parental SEQ ID NO: 6: 8.46
  ratio (binding signal/HTRF signal): 50.2
